From US20240409645A1 (published 2024)

T1: human IL-2 receptor IL-2Rα/IL-2Rβ/γc on HEK-Blue IL-2 cells (UniProt P01589 22-272; P14784 27-551; P31785 23-369)
T1 chain 1: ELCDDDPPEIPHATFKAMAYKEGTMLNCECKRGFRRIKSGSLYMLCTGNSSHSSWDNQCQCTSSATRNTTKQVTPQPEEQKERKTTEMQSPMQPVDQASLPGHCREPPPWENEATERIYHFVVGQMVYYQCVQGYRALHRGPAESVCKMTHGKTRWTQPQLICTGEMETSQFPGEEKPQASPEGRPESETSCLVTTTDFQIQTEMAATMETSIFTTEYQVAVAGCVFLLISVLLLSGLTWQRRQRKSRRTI
T1 chain 2: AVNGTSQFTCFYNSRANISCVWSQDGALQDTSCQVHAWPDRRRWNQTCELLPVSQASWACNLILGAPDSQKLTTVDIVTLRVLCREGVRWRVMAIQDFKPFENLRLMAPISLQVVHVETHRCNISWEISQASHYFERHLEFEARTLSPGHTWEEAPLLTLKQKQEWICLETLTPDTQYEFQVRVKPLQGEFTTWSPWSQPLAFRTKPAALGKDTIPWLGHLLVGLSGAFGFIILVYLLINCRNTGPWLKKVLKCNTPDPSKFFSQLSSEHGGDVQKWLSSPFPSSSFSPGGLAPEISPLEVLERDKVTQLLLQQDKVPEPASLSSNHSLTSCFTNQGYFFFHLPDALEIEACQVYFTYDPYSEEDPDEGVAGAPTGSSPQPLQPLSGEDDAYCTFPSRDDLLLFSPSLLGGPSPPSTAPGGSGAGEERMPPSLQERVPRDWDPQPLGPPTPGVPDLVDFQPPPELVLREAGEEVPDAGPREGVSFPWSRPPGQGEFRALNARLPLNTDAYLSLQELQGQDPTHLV
T1 chain 3: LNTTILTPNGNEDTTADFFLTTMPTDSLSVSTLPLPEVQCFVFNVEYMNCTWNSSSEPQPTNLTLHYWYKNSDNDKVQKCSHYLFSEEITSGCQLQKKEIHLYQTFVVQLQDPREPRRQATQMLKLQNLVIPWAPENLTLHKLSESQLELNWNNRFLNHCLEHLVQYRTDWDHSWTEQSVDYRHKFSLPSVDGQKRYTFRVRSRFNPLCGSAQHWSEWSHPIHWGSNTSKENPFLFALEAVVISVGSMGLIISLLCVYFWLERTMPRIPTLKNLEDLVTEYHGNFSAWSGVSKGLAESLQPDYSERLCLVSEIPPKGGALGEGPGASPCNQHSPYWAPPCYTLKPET

B1: BsVHH-6 (27x18) (antibody)
chain: QVQLVESGGGLVQAGGSLTLSCAAPGRTFGTDVVGWFRQAPGKEREFVASISRSGDGIYYDDSVKGRFTISRNNAWNTVNLQMNSLKVEDTAVYYCAAGDGWSTYDYWGQGTQVTVSSGGGGSGGGGSGGGGSGSQVQLVESGGGLVQPGGSLRLSCAISGGTLDSYGIGWVRQAPGKQREGVSCMSRSDDRTYYADSVKGRFTISKDSAKNTVYLQMTSLKPEDTAVYYCAAVDAYGCSLVQPTTYDFWGLGTQVTVSSGGGGSGGGGSGGGGSTVSSDKTHTCPPCPAPEAAGGPSVFLFPPKPKDTLMISRTPEVTCVVVDVSHEDPEVKFNWYVDGVEVHNAKTKPREEQYNSTYRVVSVLTVLHQDWLNGKEYKCKVSNKALGAPIEKTISKAKGQPREPQVYTLPPSRDELTKNQVSLTCLVKGFYPSDIAVEWESNGQPENNYKTTPPVLDSDGSFLLYSKLTVDKSRWQQGNVFSCSVMHEALHNHYTQKSLSLSPGK
B2: BsVHH-13 (32x19) (antibody)
chain: QVQLVESGGGLVQAGGSLRLSCAASGRTFGSTAVGWFRQVPGKEREFVSAINRSGSATTYADSVKGRFTISRDNAKNTVYLQMNSLTPEDTGVYYCAADSLPYGRPYYFQRSAGEYDYWGQGTQVTVSSGGGGSGGGGSGGGGSGSEVQLVESGGGLVQTGGSLRLSCAASGGTFSRDAMAWFRQVPGKEREFVALISWSGATTNYADSVKGRFAISRDNGKNTVYLQMNRLKPADTAIYYCAADRRPMGSRSYFEPTEYDDWGQGTQVTVSSGGGGSGGGGSGGGGSTVSSDKTHTCPPCPAPEAAGGPSVFLFPPKPKDTLMISRTPEVTCVVVDVSHEDPEVKFNWYVDGVEVHNAKTKPREEQYNSTYRVVSVLTVLHQDWLNGKEYKCKVSNKALGAPIEKTISKAKGQPREPQVYTLPPSRDELTKNQVSLTCLVKGFYPSDIAVEWESNGQPENNYKTTPPVLDSDGSFLLYSKLTVDKSRWQQGNVFSCSVMHEALHNHYTQKSLSLSPGK
B3: BsVHH-20 (36x22) (antibody)
chain: QVQLVESGGGLVQAGGSLRLSCAASGRTLSRYAMGWFRQAPGSEREFVAASSWGGDTFYADSVEGRFTFSRDNAKNAVYLQMNSLQPEDTAAYYCAAAPTSFPTTAYSSSNSYAYWGQGTQVTVSSGGGGSGGGGSGGGGSGSEVQLVESGGGLVQAGGSLRLSCAASGSIFSINAMAWFRQVPGMERELVAAISRDGGASVYRDSVKGRFTISRDNSKNTVYLQMNTLKPEDTAIYVCAATRAIGWTARWITTDFDFWGQGTQVTVSSGGGGSGGGGSGGGGSTVSSDKTHTCPPCPAPEAAGGPSVFLFPPKPKDTLMISRTPEVTCVVVDVSHEDPEVKFNWYVDGVEVHNAKTKPREEQYNSTYRVVSVLTVLHQDWLNGKEYKCKVSNKALGAPIEKTISKAKGQPREPQVYTLPPSRDELTKNQVSLTCLVKGFYPSDIAVEWESNGQPENNYKTTPPVLDSDGSFLLYSKLTVDKSRWQQGNVFSCSVMHEALHNHYTQKSLSLSPGK
B4: BsVHH-5 (36x16) (antibody)
chain: QVQLVESGGGLVQAGGSLRLSCAASGRTLSRYAMGWFRQAPGSEREFVAASSWGGDTFYADSVEGRFTFSRDNAKNAVYLQMNSLQPEDTAAYYCAAAPTSFPTTAYSSSNSYAYWGQGTQVTVSSGGGGSGGGGSGGGGSGSEVQLVESGGGLVQAGGSLRLSCAASGRAIENYPVGWFRQAPGKEREFVAAITWISGSTLYADSVKGRFTISRDNAKNTVYLQMSSLKPEDTALYYCAAALKTITRGQNDYSYWGQGTQVTVSSGGGGSGGGGSGGGGSTVSSDKTHTCPPCPAPEAAGGPSVFLFPPKPKDTLMISRTPEVTCVVVDVSHEDPEVKFNWYVDGVEVHNAKTKPREEQYNSTYRVVSVLTVLHQDWLNGKEYKCKVSNKALGAPIEKTISKAKGQPREPQVYTLPPSRDELTKNQVSLTCLVKGFYPSDIAVEWESNGQPENNYKTTPPVLDSDGSFLLYSKLTVDKSRWQQGNVFSCSVMHEALHNHYTQKSLSLSPGK
B5: BsVHH-3 (32x16) (antibody)
chain: QVQLVESGGGLVQAGGSLRLSCAASGRTFGSTAVGWFRQVPGKEREFVSAINRSGSATTYADSVKGRFTISRDNAKNTVYLQMNSLTPEDTGVYYCAADSLPYGRPYYFQRSAGEYDYWGQGTQVTVSSGGGGSGGGGSGGGGSGSEVQLVESGGGLVQAGGSLRLSCAASGRAIENYPVGWFRQAPGKEREFVAAITWISGSTLYADSVKGRFTISRDNAKNTVYLQMSSLKPEDTALYYCAAALKTITRGQNDYSYWGQGTQVTVSSGGGGSGGGGSGGGGSTVSSDKTHTCPPCPAPEAAGGPSVFLFPPKPKDTLMISRTPEVTCVVVDVSHEDPEVKFNWYVDGVEVHNAKTKPREEQYNSTYRVVSVLTVLHQDWLNGKEYKCKVSNKALGAPIEKTISKAKGQPREPQVYTLPPSRDELTKNQVSLTCLVKGFYPSDIAVEWESNGQPENNYKTTPPVLDSDGSFLLYSKLTVDKSRWQQGNVFSCSVMHEALHNHYTQKSLSLSPGK
B6: BsVHH-11 (27x19) (antibody)
chain: QVQLVESGGGLVQAGGSLTLSCAAPGRTFGTDVVGWFRQAPGKEREFVASISRSGDGIYYDDSVKGRFTISRNNAWNTVNLQMNSLKVEDTAVYYCAAGDGWSTYDYWGQGTQVTVSSGGGGSGGGGSGGGGSGSEVQLVESGGGLVQTGGSLRLSCAASGGTFSRDAMAWFRQVPGKEREFVALISWSGATTNYADSVKGRFAISRDNGKNTVYLQMNRLKPADTAIYYCAADRRPMGSRSYFEPTEYDDWGQGTQVTVSSGGGGSGGGGSGGGGSTVSSDKTHTCPPCPAPEAAGGPSVFLFPPKPKDTLMISRTPEVTCVVVDVSHEDPEVKFNWYVDGVEVHNAKTKPREEQYNSTYRVVSVLTVLHQDWLNGKEYKCKVSNKALGAPIEKTISKAKGQPREPQVYTLPPSRDELTKNQVSLTCLVKGFYPSDIAVEWESNGQPENNYKTTPPVLDSDGSFLLYSKLTVDKSRWQQGNVFSCSVMHEALHNHYTQKSLSLSPGK
B7: BsVHH-16 (27x22) (antibody)
chain: QVQLVESGGGLVQAGGSLTLSCAAPGRTFGTDVVGWFRQAPGKEREFVASISRSGDGIYYDDSVKGRFTISRNNAWNTVNLQMNSLKVEDTAVYYCAAGDGWSTYDYWGQGTQVTVSSGGGGSGGGGSGGGGSGSEVQLVESGGGLVQAGGSLRLSCAASGSIFSINAMAWFRQVPGMERELVAAISRDGGASVYRDSVKGRFTISRDNSKNTVYLQMNTLKPEDTAIYVCAATRAIGWTARWITTDFDFWGQGTQVTVSSGGGGSGGGGSGGGGSTVSSDKTHTCPPCPAPEAAGGPSVFLFPPKPKDTLMISRTPEVTCVVVDVSHEDPEVKFNWYVDGVEVHNAKTKPREEQYNSTYRVVSVLTVLHQDWLNGKEYKCKVSNKALGAPIEKTISKAKGQPREPQVYTLPPSRDELTKNQVSLTCLVKGFYPSDIAVEWESNGQPENNYKTTPPVLDSDGSFLLYSKLTVDKSRWQQGNVFSCSVMHEALHNHYTQKSLSLSPGK
B8: BsVHH-10 (36x18) (antibody)
chain: QVQLVESGGGLVQAGGSLRLSCAASGRTLSRYAMGWFRQAPGSEREFVAASSWGGDTFYADSVEGRFTFSRDNAKNAVYLQMNSLQPEDTAAYYCAAAPTSFPTTAYSSSNSYAYWGQGTQVTVSSGGGGSGGGGSGGGGSGSQVQLVESGGGLVQPGGSLRLSCAISGGTLDSYGIGWVRQAPGKQREGVSCMSRSDDRTYYADSVKGRFTISKDSAKNTVYLQMTSLKPEDTAVYYCAAVDAYGCSLVQPTTYDFWGLGTQVTVSSGGGGSGGGGSGGGGSTVSSDKTHTCPPCPAPEAAGGPSVFLFPPKPKDTLMISRTPEVTCVVVDVSHEDPEVKFNWYVDGVEVHNAKTKPREEQYNSTYRVVSVLTVLHQDWLNGKEYKCKVSNKALGAPIEKTISKAKGQPREPQVYTLPPSRDELTKNQVSLTCLVKGFYPSDIAVEWESNGQPENNYKTTPPVLDSDGSFLLYSKLTVDKSRWQQGNVFSCSVMHEALHNHYTQKSLSLSPGK
B9: BsVHH-4 (35x16) (antibody)
chain: QVQLQESGGGLVQGGGSLRLSCAASGGIFSSYAMGWFRQAPGKEREFVAAISRSGRSTNYADSVKGRFTISRDNAKSTVYLQMNSLKPEETAVYYCAAGRYYNSAYDPSPGDFGSWGHGTQVTVSSGGGGSGGGGSGGGGSGSEVQLVESGGGLVQAGGSLRLSCAASGRAIENYPVGWFRQAPGKEREFVAAITWISGSTLYADSVKGRFTISRDNAKNTVYLQMSSLKPEDTALYYCAAALKTITRGQNDYSYWGQGTQVTVSSGGGGSGGGGSGGGGSTVSSDKTHTCPPCPAPEAAGGPSVFLFPPKPKDTLMISRTPEVTCVVVDVSHEDPEVKFNWYVDGVEVHNAKTKPREEQYNSTYRVVSVLTVLHQDWLNGKEYKCKVSNKALGAPIEKTISKAKGQPREPQVYTLPPSRDELTKNQVSLTCLVKGFYPSDIAVEWESNGQPENNYKTTPPVLDSDGSFLLYSKLTVDKSRWQQGNVFSCSVMHEALHNHYTQKSLSLSPGK

Target: T1, human IL-2 receptor IL-2Rα/IL-2Rβ/γc on …
Test: FACS cell binding; avid

EC50 [nM] | Binder
172 | B1
41.8 | B2
3.4 | B3
121 | B4
3.7 | B5
38.1 | B6
659 | B7
4.2 | B8
3.5 | B9
